Measured values: PMC4759255

Molecular target: T1, His-LexA (Synechocystis sp. PCC 6803) (UniProt P73722)
T1 sequence: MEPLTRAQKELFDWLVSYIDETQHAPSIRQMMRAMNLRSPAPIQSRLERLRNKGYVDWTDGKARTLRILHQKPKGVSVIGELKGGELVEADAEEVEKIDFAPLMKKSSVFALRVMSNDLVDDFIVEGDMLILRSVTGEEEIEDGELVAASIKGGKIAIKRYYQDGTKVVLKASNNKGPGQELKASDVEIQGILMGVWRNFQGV
Assay: EMSA
Conditions: Roche DIG gel shift kit 2nd generation buffer per manufacturer plus 1 mM DTT, 25 min at room temperature, 6% polyacrylamide gel; 5x and 50x unlabeled …

| Sequence | binding |
| --- | --- |
| GTGACAACTAACATCACCTAGATGATAAGTTAATTTACAACAAATGATTGTTAGCCAGCTCACCAAAACCTGTGACAATAAACACCAAAACAGTTTACTTGTTTCTATAATTTTCCCTGAAACTGGGGTTTGAGAGGGTCTAGGGGAGAATTTAGTTATTGTTTGGATATATTGTCATGGCACCACAAAAGCCGTCAACAAA (double strand) [pilA9 promoter] | binds |
| TGGGATCAAACAACAAGAAAAAATCAATTTACCCTGCCCATGGCAATAGTTTTAAGGTTAACAAAAAAAATAGAATTTACCGCAATCGACGGGTAAATTTCCAGAGGATACCCCCAACTCCAGAAGCAGAAATCTTGCCAGAAAAGCTTTTTCTGTTACTATACTTAACAAGTAACTACTTTTTCC (double strand) [ggpS promoter] | binds |
| TGGGCAGGGTAAATTGATTTTTTCTTGTTGTTTGATCCCATTTTCCAGTCTTTTTGACTTCCATTCAGTCAGGATAATTTTTGCAGTTTTTTTATGGAGTTTTGATAACATTGAGCTTTGCCCCCGGCGATCGCCTAGGGATAAACAATAAACGTGTGAACTAATATGCCTGGATTTATCCCTGGATTGACATTGTTTTTGCC (double strand) [slr1670 promoter] | binds |
| TTGTTCAAGATCATTAGGCTTTAGTATATTTATAGTGATCAAAAAAGCAAGTGGTGAAAGAAACACCCAGACAAATATTCACAAAACTTAATTTTACTTAACAAATCATAATCCAGTTACGCAGTTACCACCTACACGGGAACCAGAACGCACGATTCCCAAGCCGGAAGAAATTACTAAGCATGGCTCATAGGATGTTCTAC (double strand) [pilA7 promoter] | binds |
